Assay: yeast display, Sf9 membrane polyspecificity reagent, FACS + sequencing; frameworks hold sequencing errors
Procedure, shortened: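 Genes from sorted yeast were amplified by colony PCR, read by MiSeq 2 × 250 sequencing and filtered on CDR length. These cells carried a synthetic nanobody library in Saccharomyces cerevisiae BJ5465 and were sorted by FACS into low and high (top ~1%) gates on anti-HA and streptavidin fluorescence. Polyreactivity is labelled according to the gate of origin.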

Which “polyreactivity (PSR sort gate)” value does the source give for “QVQLVESGGGLVQAGGSLRLSCAASGSTFAPYAMGWYRQAPGKERELVASISWRGGRTYYADSVKGRFTISRDNAKNTVYLQMNSLKPEDTAVYYCATSRYRVDRWGPPYRYDYWGQGTQVTVSS” here?
Its value is “high polyreactivity”.

For “QVQLVESGGGLVQAGGSLRLSCAASGSTFARNAMGWYRPAPGKERELVAAITNAGDTNYADSVKGRFTISRDNAKNTVYLQMNSLKPEDTAVYYCAADTRFYSGRGTVSGDYWGQGTQVTVSS”, which “polyreactivity (PSR sort gate)” value is on record?
Its value is “low polyreactivity”.

With “QVQLVESGGGLVQAGGSLRLSCAASGSTFARNAMGWYRQAHGKERELVAAITNAGDTNYADSVKGRFTISRDNAKNTVYLQMNSLKPVDTAVYYCAADPILIDEYWGQGTQVTVSS” as the sequence, how does the “polyreactivity (PSR sort gate)” value read?
Its value is “low polyreactivity”.

For “QVQLVESGGGLVQAGGSLRLSCAASGSTFARNAMGWYRQAPGKERELVAAISSSGGRTYYADSVKGRFTISRDNAKNTVYLQMNSLKPEDTAVYSCAARTFGSVHSYRGGYWGQGTQVTVSS”, which “polyreactivity (PSR sort gate)” value is on record?
Its value is “high polyreactivity”.

With “QVQLVESGGGLVQAGGSLRLSCAASGSTFARNAMGWYRQAPGKERELVAAITNAGDTNYADSVKGRFTISRDNAKNTVYLQMNSLKPEDTAVYYCAAEPILIDEYWGQGTQVTVSS” as the sequence, how does the “polyreactivity (PSR sort gate)” value read?
The value was “low polyreactivity”.

With “QVQLVESGGGLVQAGGSLRLSCAASGSTFARYAMGWYRQAPGKERELVAAISGGGGSTYYADSVKGRFTISRDNAKNTVYLQMNSLKPEDTAVYYCAKLLARGNRYDSWGQGTQVTVSS” as the sequence, how does the “polyreactivity (PSR sort gate)” value read?
Its value is “high polyreactivity”.

With “QVQLVESGGGLVQAGGSLRLSCAASGSTFARYAMGWYRQAPGKERELVAAISRRGGSTYYADSVKGRFTISRDNAKNTVYLQMNSLKPEDTAVYYCAARYGIISSFEYDYWGQGTQVTVSS” as the sequence, how does the “polyreactivity (PSR sort gate)” value read?
The value was “high polyreactivity”.

For “QVQLVESGGGLVQAGGSLRLSCAASGSTFARYAMGWYRQAPGKERELVAAISRSGSNTYYADSVKGRFTISRDNAKNTVYLQMNSLKPEDTAVYYCAAVQPGQRTVAYDYWGQGTLVTVSS”, which “polyreactivity (PSR sort gate)” value is on record?
Its value is “high polyreactivity”.

For “QVQLVESGGGLVQAGGSLRLSCAASGSTFASNAMGWYRQAPGKERELVAAISKRGGSTYYADSVKGRFTISRDNAKNTVYLQMNSLKPEDTSVYYCNADWTRSQYDYWGQGTQVTVSS”, which “polyreactivity (PSR sort gate)” value is on record?
The value was “high polyreactivity”.

For “QVQLVESGGGLVQAGGSLRLSCAASGSTFATNTMGWYRQAPGKERELVAAITSGGSTYYADSVKGRFTISRDNAKNTVYLQMNSLKPEDTAVYYCAVRGVYYYHRAFDYWGQGTQVTVSS”, which “polyreactivity (PSR sort gate)” value is on record?
Its value is “high polyreactivity”.

With “QVQLVESGGGLVQAGGSLRLSCAASGSTFATYTMGWYRQAPGKERELVAAISSRGGSTYYADSVKGRFTISRDNAKNTGYLQMNSLKPEDTAVYYCNARRSTDPARYYWGQGSQVTVSS” as the sequence, how does the “polyreactivity (PSR sort gate)” value read?
Its value is “high polyreactivity”.

Which “polyreactivity (PSR sort gate)” value does the source give for “QVQLVESGGGLVQAGGSLRLSCAASGSTFATYTMGWYRQAPGKERELVATISRSGTTTYYADSVKGRFTISRDNAKYTVYLQMNSLKPEDTAVYYCNTLRAYWTYHFYGAVRDGYDYWGQGTQVTVST” here?
Its value is “low polyreactivity”.

For “QVQLVESGGGLVQAGGSLRLSCAASGSTFAVNAMRSYRQAPGKEREFVAAISFGTGSTYYADSVKGRFTISRDNAKKTVYLQMNSLKPEDTAVYYCNAEASGYYWWWGYDYWGQGTQVTVSS”, which “polyreactivity (PSR sort gate)” value is on record?
Its value is “low polyreactivity”.

Which “polyreactivity (PSR sort gate)” value does the source give for “QVQLVESGGGLVQAGGSLRLSCAASGSTFAWYAMGWYRQAPGKERELVAAISRTGRTYYADSVKGRFTISRDNAKNTVYLQMNSLKPEDTAVYYCAARIERFYRDQRYDYWGQGTQVTVSS” here?
Its value is “high polyreactivity”.

With “QVQLVESGGGLVQAGGSLRLSCAASGSTFAYNAMGWYRQAPGKERELVAAISWGDGITYYADSVKGRFTISRDNAKNTVYLQMNSLKPEDTAVITRDFGYWGQGTQVTVSS” as the sequence, how does the “polyreactivity (PSR sort gate)” value read?
The value was “low polyreactivity”.

Which “polyreactivity (PSR sort gate)” value does the source give for “QVQLVESGGGLVQAGGSLRLSCAASGSTFAYNAMGWYRQAPGKERELVASISWTGGSTYYADSVKGRFTISRDNAKNTVYLQMNSLKPEDTAVYYCAVDWLEGYEFDSWGQGTQVTVSS” here?
Its value is “low polyreactivity”.

With “QVQLVESGGGLVQAGGSLRLSCAASGSTFAYYAMGWYRQAPGKERELVAAIDDTGSTNYADSVKGRFTISRDNAKYTVFLQMNSLKPEYTAVYYCNAQPDGTYDYWGQGTQVTVSS” as the sequence, how does the “polyreactivity (PSR sort gate)” value read?
The value was “low polyreactivity”.

For “QVQLVESGGGLVQAGGSLRLSCAASGSTFAYYTMGWYRQAPGKERELVAAISKSGGSTTYADSVKGRFTISRDNAKNTVYLQMNSLKPEDTAVYYCAAYDRVENYNYWGQGTQVTVSS”, which “polyreactivity (PSR sort gate)” value is on record?
Its value is “high polyreactivity”.

For “QVQLVESGGGLVQAGGSLRLSCAASGSTFCFYAMGWYRQSPGKERELVATITIGGRTYADSVKGRFTISRDNAKNTLYLQMNSLKPEDTAVYYCNARNHVQVLFRRDYWVQGTQVTVSS”, which “polyreactivity (PSR sort gate)” value is on record?
Its value is “low polyreactivity”.

With “QVQLVESGGGLVQAGGSLRLSCAASGSTFCINAMGWYRQAPGKERDLVAAISSRGGSTYYADSVKGRFTISRDNAKNTVYLQMNSLKPEDTAVYYCAAEFAVSFYWSWLGQDYNYWGQGTQVTVSS” as the sequence, how does the “polyreactivity (PSR sort gate)” value read?
Its value is “high polyreactivity”.

Which “polyreactivity (PSR sort gate)” value does the source give for “QVQLVESGGGLVQAGGSLRLSCAASGSTFDAYAMGWSRQAPGKERELVAAMTNAGSTNYADSVKGRFTISRDNAKNTVYLQMNSLKPEDTAVYYCATDWYHRYLDGRYDYLGQGTQVTVSS” here?
The value was “low polyreactivity”.

Which “polyreactivity (PSR sort gate)” value does the source give for “QVQLVESGGGLVQAGGSLRLSCAASGSTFDAYAMGWYRQAPGKEWELVAAISTRGGRTDYADSVKGRFTISRDNAKNTVYLQMNSRKPEDTAVYYCTAVGARVNVRGTPAFDSWGQGTQVTVSS” here?
The value was “high polyreactivity”.

Which “polyreactivity (PSR sort gate)” value does the source give for “QVQLVESGGGLVQAGGSLRLSCAASGSTFDDNAMGWYRQAPGKERELVAAITYRGTRTYYADSVKGRFTISRDNAKNTVYLQMNSLKPEDTAVYYCAADSESVGYEYWGQGTQVTVSS” here?
Its value is “high polyreactivity”.

For “QVQLVESGGGLVQAGGSLRLSCAASGSTFDDYAMGWYRQAPGKEREFVAAITYGGGNTYYADSVKGRFTISRDNAKNTVYLQMNSLKPEDTAVYYCNKLSRGFSPKYGYWGQGTQVTVSS”, which “polyreactivity (PSR sort gate)” value is on record?
The value was “high polyreactivity”.

For “QVQLVESGGGLVQAGGSLRLSCAASGSTFDFYAMGWYRQAPGKERELVARISSGGGRTYYADSVKGRFTISRDNAKNTVYLQMNSLKPEDTAVYYCATDYPWIFGHFLMDYWGQGTQVTVSS”, which “polyreactivity (PSR sort gate)” value is on record?
Its value is “low polyreactivity”.

With “QVQLVESGGGLVQAGGSLRLSCAASGSTFDGNAMGWYRQAPGKERELVAAISSSGGSTYYADSVKGRFTISRDNAKNTVYLQMNSLKPEDTAVYYCAAGGWSTLLSWFYRRYDYWGQGTQVTVSS” as the sequence, how does the “polyreactivity (PSR sort gate)” value read?
The value was “high polyreactivity”.

For “QVQLVESGGGLVQAGGSLRLSCAASGSTFDGNAMGWYRQAPGKERELVAAITSGGSTNYADSVKGRFTISRDNAKNTVYLQMNSLKPEDTAVYYCAADTVSFSILYDYWGQGTQVTVSS”, which “polyreactivity (PSR sort gate)” value is on record?
Its value is “low polyreactivity”.

With “QVQLVESGGGLVQAGGSLRLSCAASGSTFDGNAMGWYRQAPGKERELVAGISYRGGSTYYADSVKGRFTISRDNAKNTVYLQMNSLKPEDTAVYYCAADDYGYWLFDYWGQGTQVTVSS” as the sequence, how does the “polyreactivity (PSR sort gate)” value read?
Its value is “low polyreactivity”.

With “QVQLVESGGGLVQAGGSLRLSCAASGSTFDGNAMGWYRQAPGKERELVASITQRASNTYYADSVKGRFTISRDNAKNTVDLQMNSLKPEDTAVYYCARQWYWRPVYYIGQGYEYWGQGTQVTVSS” as the sequence, how does the “polyreactivity (PSR sort gate)” value read?
The value was “low polyreactivity”.

For “QVQLVESGGGLVQAGGSLRLSCAASGSTFDGNAMGWYRQAPGTERELVAAITSGGSTNYADSVKGRFTISRDNAKNTVYLQMNSLKPEDTAVYYCAADTVSFSILYDYWGQGTQVTVSS”, which “polyreactivity (PSR sort gate)” value is on record?
The value was “low polyreactivity”.

For “QVQLVESGGGLVQAGGSLRLSCAASGSTFDGYAMGWYRQAPGKERELVAAITSSSTSTYYADSVKGRFTISRDNAKNTVYLQMYSLKPEDTAVYYCAAQYFSYISVYSFYTMGYWGQGTQVTVSS”, which “polyreactivity (PSR sort gate)” value is on record?
The value was “low polyreactivity”.

For “QVQLVESGGGLVQAGGSLRLSCAASGSTFDHYAMGWYRPAPGKERELVAAISYSGSTTDYADSVKGRFTISRDNAKNTVYLQMNSLKPVDTAVYYFAASGDVIQSPMDYWGQGTQVTVSS”, which “polyreactivity (PSR sort gate)” value is on record?
Its value is “low polyreactivity”.

Which “polyreactivity (PSR sort gate)” value does the source give for “QVQLVESGGGLVQAGGSLRLSCAASGSTFDINAMGWYRQAPGKERELVAAITDSGGSTHYADSVKGRFTISRDNAKNTVSLQMNSLKPEDTAVYYCNADDYLVYAGSHYGYWGQGTQVTVSS” here?
Its value is “low polyreactivity”.

With “QVQLVESGGGLVQAGGSLRLSCAASGSTFDIYAMGCYRQAPGKERELVAAITFSGGSTYADSVKGRFTISRDNAKNTVYFQMNSLKPEDTAVYYCAVDGGEFSSYGYWGQGTQVTVSS” as the sequence, how does the “polyreactivity (PSR sort gate)” value read?
Its value is “low polyreactivity”.

For “QVQLVESGGGLVQAGGSLRLSCAASGSTFDIYAMGWYRPAPGKERELVAVISGGDGSTYYADSVKGRFTISRDNAKNTVYLQMNSLKPEDTAVYYCAADYISPGYWDGEYDCWGQGTQVTVSS”, which “polyreactivity (PSR sort gate)” value is on record?
The value was “low polyreactivity”.

With “QVQLVESGGGLVQAGGSLRLSCAASGSTFDIYAMGWYRQAPGKERELVAAISVSDVDTYYADSVKGRFTISRDNAKNTVYLQMNSLKPEDTAVYYCAAETPTHDEWGQGTQVTVSS” as the sequence, how does the “polyreactivity (PSR sort gate)” value read?
The value was “high polyreactivity”.

With “QVQLVESGGGLVQAGGSLRLSCAASGSTFDIYVMGWYRQAPGKEREFVAAITTTTGRTNYADSVKGRFTISRDYAKNTVYLQMNSLKPEDTAVYYCAAYVTWGKLWYGYWGQGTQVTVSS” as the sequence, how does the “polyreactivity (PSR sort gate)” value read?
The value was “high polyreactivity”.

Which “polyreactivity (PSR sort gate)” value does the source give for “QVQLVESGGGLVQAGGSLRLSCAASGSTFDKNTMGWYRQAPGKERELVAAISRSGGSTYYADSVKGRYTISRDNAKNTVYLQMNSLKPEDTAVYYCAAQSRYWTYDYWGQGTQVTVSS” here?
Its value is “high polyreactivity”.

With “QVQLVESGGGLVQAGGSLRLSCAASGSTFDKYAMGWYRQAPGKERELVAAISSGSSTSYADSVKGRFTISRDNAKNTVYLQMNSLKPEDTAVYYCAAEVAESIEDDYWGQGTQVTVSS” as the sequence, how does the “polyreactivity (PSR sort gate)” value read?
Its value is “low polyreactivity”.

For “QVQLVESGGGLVQAGGSLRLSCAASGSTFDLYAMGWCRQAPGKEREWVAAITWSGDDTYYADSVKGRFTISRDNATNTVYLQMNSLKPEDTAVYYCAAAYAYWGQGTQVTVSS”, which “polyreactivity (PSR sort gate)” value is on record?
Its value is “low polyreactivity”.

With “QVQLVESGGGLVQAGGSLRLSCAASGSTFDLYAMGWYRQAPGKEREFVASISWRGTNTYYADSVKGRFTISRDNAKNTVYLQMISLKPEDTAVYYCYAVRGWTTRYDYWGQGTQVTVSS” as the sequence, how does the “polyreactivity (PSR sort gate)” value read?
Its value is “high polyreactivity”.

Which “polyreactivity (PSR sort gate)” value does the source give for “QVQLVESGGGLVQAGGSLRLSCAASGSTFDNNGMGWYRQAPGKERELVASITFNVGSTYYADSVKGRFTISRDNAKNTVYLQMNSLKPEDTAVYYCAADDLNLSQALGYDYWGQGTQVTVSS” here?
Its value is “low polyreactivity”.

Which “polyreactivity (PSR sort gate)” value does the source give for “QVQLVESGGGLVQAGGSLRLSCAASGSTFDQNAMGWYRPAPGKERELVAAISGSGTRTYYADSVKGLFTISRDNAKKTVYLQMNSLKPEDTAVYYCRTGSGEYDYWGQGTQVTVSS” here?
The value was “high polyreactivity”.
